The target of this test is MBP–Cas5–Cas7 complex (Methanothermobacter thermautotrophicus) (Methanothermobacter thermautotrophicus ΔH). Put plainly: pull-down; MBP–Cas5–Cas7 (20 μg) held on amylose resin, His6–Cas8′ (20 μg) added, final volume 500 μl, 2–4 h at 4°C; 20 mM Tris/HCl pH 8.0, 150 mM NaCl, 1 mM EDTA, 1% Tween; western blots with anti-His6 and anti-MBP; with or without pre-incubation of Cas5–Cas7 with crRNA1. (Immunoblotting shows a protein as a band on a membrane.)

The substance “N-terminal hexahistidine-tagged Mth Cas8′ (natural protein)” displayed a percent of input bound below 10%.

(Values after paper PMC4613674.)
